Experimental data as given in patent US20210228738A1.

Key:
[1] = molecular target: hamster IgG (pooled hamster plasma)
[2] = molecular target: rhesus macaque IgG (NHP plasma)
[3] = molecular target: total IgG in human serum samples and pooled human plasma

B1: immunoglobulin G-degrading enzyme of Streptococcus pyogenes (IdeS) (protein)
chain: DSFSANQEIRYSEVTPYHVTSVWTKGVTPPANFTQGEDVFHAPYVANQGWYDITKTFNGKDDLLCGAATAGNMLHWWFDQNKDQIKRYLEEHPEKQKINFNGEQMFDVKEAIDTKNHQLDSKLFEYFKEKAFPYLSTKHLGVFPDHVIDMFINGYRLSLTNHGPTPVKEGSKDPRGGIFDAVFTRGDQSKLLTSRHDFKEKNLKEISDLIKKELTEGKALGLSHTYANVRINHVINLWGADFDSNGNLKAIYVTDSDSNASIGMKKYFVGVNSAGKVAISAKEIKEDNIGAQVLGLFTLSTGQDSWNQTN
B1 was tested, and the “cleavage of IgG, non-reducing SDS-PAGE and Coomassie Blue staining” value [1] was “IdeS was effective to cleave the IgG in the pooled hamster plasma and pooled human plasma in vitro”, the “cleavage of IgG, non-reducing SDS-PAGE and Coomassie stain” value [2] was “In the NHP samples, IgG was similarly cleaved in all NAb titer groups” and the “cleavage of IgG, non-reducing SDS-PAGE and Coomassie Blue staining” value [3] was “IdeS was effective to cleave the IgG in the pooled hamster plasma and pooled human plasma in vitro”. The “cleavage of IgG, non-reducing SDS-PAGE and Coomassie stain” value [3] was “the lowest dose of IdeS cleaved all total IgG (~150 kD) to liberate the Fc fragment (~25 kD)”.
